Test results from IntAct's records for PubMed 19525971.

B1: Charged multivesicular body protein 3 (Homo sapiens), Q9Y3E7-1 (parent)
chain: MGLFGKTQEKPPKELVNEWSLKIRKEMRVVDRQIRDIQREEEKVKRSVKDAAKKGQKDVCIVLAKEMIRSRKAVSKLYASKAHMNSVLMGMKNQLAVLRVAGSLQKSTEVMKAMQSLVKIPEIQATMRELSKEMMKAGIIEEMLEDTFESMDDQEEMEEEAEMEIDRILFEITAGALGKAPSKVTDALPEPEPPGAMAASEDEEEEEEALEAMQSRLATLRS
partner: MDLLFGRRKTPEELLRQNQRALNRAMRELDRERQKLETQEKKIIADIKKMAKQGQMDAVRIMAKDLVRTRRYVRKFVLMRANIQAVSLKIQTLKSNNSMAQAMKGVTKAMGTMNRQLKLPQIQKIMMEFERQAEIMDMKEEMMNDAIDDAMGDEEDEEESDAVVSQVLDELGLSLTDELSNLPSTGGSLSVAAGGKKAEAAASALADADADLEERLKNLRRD

Variants of: B1
Settings: with chm2a_human CHMP2A

Variant | effect of a mutation on the interaction
V59D;V62D;I168D;L169D | disrupting interaction
V59D;V62D | disrupting interaction
